Test results from the supplement of paper PMC9112550, “Optimization of the antimicrobial peptide Bac7 by deep mutational scanning” (BMC Biology, 2022).

Tested on: Escherichia coli TOP10
Test: shrunken log2 fold change of peptide-encoding DNA abundance (4.5 h post-induction vs induction); higher = less antimicrobial activity (less host growth inhibition)
Conditions: time post-induction: 4.5 h; library: site-saturation at positions 5, 18, 19, 20
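Also: peptides expressed intracellularly from a pBAD plasmid library in pooled LB shake-flask culture, induced with 0.3% L-arabinose, DNA abundance read by NGS, three biological replicates, DESeq2 with apeglm shrinkage.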

## RRIRERPPRLPRPRPRPCHGPRP
  shrunken log2 fold change: -0.989

## RRIRGRPPRLPRPRPRPGQWPRP
  shrunken log2 fold change: 0.356

## RRIRPRPPRLPRPRPRPIVQPRP
  shrunken log2 fold change: -0.135

## RRIRKRPPRLPRPRPRPSVTPRP
  shrunken log2 fold change: -0.0473

## RRIRYRPPRLPRPRPRPSYMPRP
  shrunken log2 fold change: -1.41

## RRIRPRPPRLPRPRPRPLSMPRP
  shrunken log2 fold change: -0.33

## RRIRHRPPRLPRPRPRPQHRPRP
  shrunken log2 fold change: -0.355

## RRIRNRPPRLPRPRPRPNMKPRP
  shrunken log2 fold change: -0.48

## RRIRQRPPRLPRPRPRPNIVPRP
  shrunken log2 fold change: -0.044

## RRIRIRPPRLPRPRPRPKIEPRP
  shrunken log2 fold change: -0.0307

## RRIRFRPPRLPRPRPRPCERPRP
  shrunken log2 fold change: -0.141

## RRIRIRPPRLPRPRPRPWAGPRP
  shrunken log2 fold change: -0.291

## RRIRWRPPRLPRPRPRPTCCPRP
  shrunken log2 fold change: 1.13

## RRIRTRPPRLPRPRPRPGDHPRP
  shrunken log2 fold change: 0.00667

## RRIRKRPPRLPRPRPRPSMSPRP
  shrunken log2 fold change: 0.14

## RRIRCRPPRLPRPRPRPPHWPRP
  shrunken log2 fold change: 0.531

## RRIRCRPPRLPRPRPRPFRGPRP
  shrunken log2 fold change: -0.151

## RRIRKRPPRLPRPRPRPSIAPRP
  shrunken log2 fold change: 0.00111

## RRIRHRPPRLPRPRPRPSYRPRP
  shrunken log2 fold change: -0.481

## RRIRVRPPRLPRPRPRPGHQPRP
  shrunken log2 fold change: -0.0671

## RRIRERPPRLPRPRPRPCTIPRP
  shrunken log2 fold change: -0.487

## RRIRCRPPRLPRPRPRPSMRPRP
  shrunken log2 fold change: 0.303

## RRIRWRPPRLPRPRPRPLQHPRP
  shrunken log2 fold change: 0.394

## RRIRERPPRLPRPRPRPRRHPRP
  shrunken log2 fold change: 0.411

## RRIRNRPPRLPRPRPRPNCNPRP
  shrunken log2 fold change: -0.549

## RRIRFRPPRLPRPRPRPARWPRP
  shrunken log2 fold change: 0.577

## RRIRFRPPRLPRPRPRPICIPRP
  shrunken log2 fold change: -0.399

## RRIRIRPPRLPRPRPRPSSYPRP
  shrunken log2 fold change: -0.207

## RRIRDRPPRLPRPRPRPKELPRP
  shrunken log2 fold change: 0.0843

## RRIRKRPPRLPRPRPRPCQMPRP
  shrunken log2 fold change: -0.0362

## RRIRYRPPRLPRPRPRPAGCPRP
  shrunken log2 fold change: -0.177

## RRIRCRPPRLPRPRPRPLCYPRP
  shrunken log2 fold change: -0.439

## RRIRFRPPRLPRPRPRPITYPRP
  shrunken log2 fold change: -0.472

## RRIRFRPPRLPRPRPRPINWPRP
  shrunken log2 fold change: -0.113

## RRIRHRPPRLPRPRPRPQWVPRP
  shrunken log2 fold change: 0.0322

## RRIRWRPPRLPRPRPRPVYSPRP
  shrunken log2 fold change: -0.104

## RRIRFRPPRLPRPRPRPNKPPRP
  shrunken log2 fold change: -0.00705

## RRIRCRPPRLPRPRPRPREYPRP
  shrunken log2 fold change: -0.22

## RRIRPRPPRLPRPRPRPERSPRP
  shrunken log2 fold change: 0.0565

## RRIRVRPPRLPRPRPRPLTAPRP
  shrunken log2 fold change: 0.106

## RRIRGRPPRLPRPRPRPQEFPRP
  shrunken log2 fold change: 0.27

## RRIRFRPPRLPRPRPRPNMHPRP
  shrunken log2 fold change: -0.377

## RRIRQRPPRLPRPRPRPATMPRP
  shrunken log2 fold change: -0.0699

## RRIRTRPPRLPRPRPRPSKDPRP
  shrunken log2 fold change: -0.61

## RRIRKRPPRLPRPRPRPCQEPRP
  shrunken log2 fold change: -0.0342

## RRIRDRPPRLPRPRPRPALEPRP
  shrunken log2 fold change: 0.659

## RRIRLRPPRLPRPRPRPLFLPRP
  shrunken log2 fold change: -0.551

## RRIRCRPPRLPRPRPRPEQIPRP
  shrunken log2 fold change: 0.259

## RRIRERPPRLPRPRPRPVGVPRP
  shrunken log2 fold change: 0.0502

## RRIRRRPPRLPRPRPRPQPIPRP
  shrunken log2 fold change: 0.206

## RRIRRRPPRLPRPRPRPTLTPRP
  shrunken log2 fold change: 0.466

## RRIRLRPPRLPRPRPRPECNPRP
  shrunken log2 fold change: -0.0178

## RRIRDRPPRLPRPRPRPGADPRP
  shrunken log2 fold change: 0.655

## RRIRKRPPRLPRPRPRPKFTPRP
  shrunken log2 fold change: 0.355

## RRIRWRPPRLPRPRPRPARFPRP
  shrunken log2 fold change: 0.461

## RRIRMRPPRLPRPRPRPQQHPRP
  shrunken log2 fold change: 0.0483

## RRIRWRPPRLPRPRPRPALYPRP
  shrunken log2 fold change: 0.232

## RRIRLRPPRLPRPRPRPDQKPRP
  shrunken log2 fold change: 0.0416

## RRIRQRPPRLPRPRPRPINYPRP
  shrunken log2 fold change: -0.0444

## RRIRMRPPRLPRPRPRPRGMPRP
  shrunken log2 fold change: 0.861

## RRIRGRPPRLPRPRPRPNSSPRP
  shrunken log2 fold change: -0.00499

## RRIRCRPPRLPRPRPRPLVQPRP
  shrunken log2 fold change: 0.245

## RRIRFRPPRLPRPRPRPQPMPRP
  shrunken log2 fold change: 0.302

## RRIRFRPPRLPRPRPRPAVQPRP
  shrunken log2 fold change: -0.0142

## RRIRTRPPRLPRPRPRPITKPRP
  shrunken log2 fold change: 0.0123

## RRIRMRPPRLPRPRPRPSMIPRP
  shrunken log2 fold change: 0.229

## RRIRTRPPRLPRPRPRPQKHPRP
  shrunken log2 fold change: -0.459

## RRIRKRPPRLPRPRPRPGNNPRP
  shrunken log2 fold change: -0.107

## RRIRKRPPRLPRPRPRPEPPPRP
  shrunken log2 fold change: 2.92

## RRIRKRPPRLPRPRPRPWWWPRP
  shrunken log2 fold change: -0.0108

## RRIRRRPPRLPRPRPRPFRAPRP
  shrunken log2 fold change: 0.251

## RRIRARPPRLPRPRPRPIMQPRP
  shrunken log2 fold change: -0.0531

## RRIRQRPPRLPRPRPRPLSSPRP
  shrunken log2 fold change: -0.055

## RRIRARPPRLPRPRPRPCYQPRP
  shrunken log2 fold change: -0.232

## RRIRDRPPRLPRPRPRPCFVPRP
  shrunken log2 fold change: 0.0784

## RRIRVRPPRLPRPRPRPIDKPRP
  shrunken log2 fold change: -0.471

## RRIRIRPPRLPRPRPRPQSPPRP
  shrunken log2 fold change: 0.0218

## RRIRSRPPRLPRPRPRPFNEPRP
  shrunken log2 fold change: -0.19

## RRIRRRPPRLPRPRPRPMSTPRP
  shrunken log2 fold change: 0.231

## RRIRHRPPRLPRPRPRPLTPPRP
  shrunken log2 fold change: -0.119

## RRIRVRPPRLPRPRPRPNGVPRP
  shrunken log2 fold change: -0.154

## RRIRVRPPRLPRPRPRPDIGPRP
  shrunken log2 fold change: -0.173

## RRIRARPPRLPRPRPRPNRHPRP
  shrunken log2 fold change: 0.0991

## RRIRGRPPRLPRPRPRPRFLPRP
  shrunken log2 fold change: 0.448

## RRIRDRPPRLPRPRPRPSEDPRP
  shrunken log2 fold change: 0.00101

## RRIRDRPPRLPRPRPRPDNSPRP
  shrunken log2 fold change: 0.0428

## RRIRGRPPRLPRPRPRPYNMPRP
  shrunken log2 fold change: -0.531

## RRIRLRPPRLPRPRPRPTRIPRP
  shrunken log2 fold change: -0.141

## RRIRMRPPRLPRPRPRPSQCPRP
  shrunken log2 fold change: -0.112

## RRIRFRPPRLPRPRPRPSQCPRP
  shrunken log2 fold change: 0.153

## RRIRKRPPRLPRPRPRPSHYPRP
  shrunken log2 fold change: -0.248

## RRIRYRPPRLPRPRPRPMVIPRP
  shrunken log2 fold change: -0.0231

## RRIRCRPPRLPRPRPRPFYIPRP
  shrunken log2 fold change: -0.58

## RRIRMRPPRLPRPRPRPQDHPRP
  shrunken log2 fold change: -0.0101

## RRIRWRPPRLPRPRPRPELWPRP
  shrunken log2 fold change: 0.729

## RRIRHRPPRLPRPRPRPCPEPRP
  shrunken log2 fold change: 0.037

## RRIRPRPPRLPRPRPRPEMCPRP
  shrunken log2 fold change: 0.291

## RRIRQRPPRLPRPRPRPIREPRP
  shrunken log2 fold change: -0.0225

## RRIRPRPPRLPRPRPRPAIKPRP
  shrunken log2 fold change: -0.339

## RRIRERPPRLPRPRPRPLILPRP
  shrunken log2 fold change: -0.574

## RRIRVRPPRLPRPRPRPATMPRP
  shrunken log2 fold change: -0.259

## RRIRMRPPRLPRPRPRPVAAPRP
  shrunken log2 fold change: 2.1

## RRIRFRPPRLPRPRPRPFPIPRP
  shrunken log2 fold change: -0.184

## RRIRCRPPRLPRPRPRPPEAPRP
  shrunken log2 fold change: 0.968

## RRIRNRPPRLPRPRPRPIHFPRP
  shrunken log2 fold change: -0.263

## RRIRQRPPRLPRPRPRPKKVPRP
  shrunken log2 fold change: -0.0514

## RRIRGRPPRLPRPRPRPNHEPRP
  shrunken log2 fold change: 0.0434

## RRIRTRPPRLPRPRPRPGHSPRP
  shrunken log2 fold change: 0.0834

## RRIRWRPPRLPRPRPRPHTTPRP
  shrunken log2 fold change: 0.0145

## RRIRLRPPRLPRPRPRPVYHPRP
  shrunken log2 fold change: -0.856

## RRIRSRPPRLPRPRPRPSRNPRP
  shrunken log2 fold change: -0.129

## RRIRTRPPRLPRPRPRPIRNPRP
  shrunken log2 fold change: -0.324

## RRIRVRPPRLPRPRPRPPQIPRP
  shrunken log2 fold change: 0.22

## RRIRSRPPRLPRPRPRPISNPRP
  shrunken log2 fold change: -0.338

## RRIRKRPPRLPRPRPRPHFMPRP
  shrunken log2 fold change: -0.171

## RRIRARPPRLPRPRPRPFVHPRP
  shrunken log2 fold change: -0.207

## RRIRTRPPRLPRPRPRPDCLPRP
  shrunken log2 fold change: -0.0333

## RRIRDRPPRLPRPRPRPLCNPRP
  shrunken log2 fold change: -0.00406

## RRIRERPPRLPRPRPRPRLEPRP
  shrunken log2 fold change: -0.0353

## RRIRPRPPRLPRPRPRPIMLPRP
  shrunken log2 fold change: -0.114

## RRIRTRPPRLPRPRPRPQIPPRP
  shrunken log2 fold change: -0.235

## RRIRLRPPRLPRPRPRPHGNPRP
  shrunken log2 fold change: -0.186

## RRIRRRPPRLPRPRPRPYIWPRP
  shrunken log2 fold change: -0.335

## RRIRVRPPRLPRPRPRPKWFPRP
  shrunken log2 fold change: -0.0567

## RRIRCRPPRLPRPRPRPKHCPRP
  shrunken log2 fold change: -0.166

## RRIRDRPPRLPRPRPRPPPMPRP
  shrunken log2 fold change: 0.519

## RRIRMRPPRLPRPRPRPDRPPRP
  shrunken log2 fold change: 0.107

## RRIRNRPPRLPRPRPRPMGRPRP
  shrunken log2 fold change: -0.117

## RRIRNRPPRLPRPRPRPFVFPRP
  shrunken log2 fold change: -0.0679

## RRIRTRPPRLPRPRPRPYRQPRP
  shrunken log2 fold change: -0.00615

## RRIRRRPPRLPRPRPRPTIKPRP
  shrunken log2 fold change: -0.0992

## RRIRPRPPRLPRPRPRPDCWPRP
  shrunken log2 fold change: 0.543

## RRIRHRPPRLPRPRPRPMIWPRP
  shrunken log2 fold change: -0.00298

## RRIRIRPPRLPRPRPRPYKSPRP
  shrunken log2 fold change: -1.14

## RRIRNRPPRLPRPRPRPLFKPRP
  shrunken log2 fold change: -1.08

## RRIRVRPPRLPRPRPRPHFAPRP
  shrunken log2 fold change: 0.0941

## RRIRQRPPRLPRPRPRPETTPRP
  shrunken log2 fold change: 0.0178

## RRIRQRPPRLPRPRPRPYCSPRP
  shrunken log2 fold change: -0.132

## RRIRIRPPRLPRPRPRPCMDPRP
  shrunken log2 fold change: -0.695

## RRIRDRPPRLPRPRPRPPMAPRP
  shrunken log2 fold change: -0.0543

## RRIRCRPPRLPRPRPRPPPYPRP
  shrunken log2 fold change: 0.511

## RRIRLRPPRLPRPRPRPNPRPRP
  shrunken log2 fold change: 0.304

## RRIRIRPPRLPRPRPRPDSMPRP
  shrunken log2 fold change: -0.00884

## RRIRRRPPRLPRPRPRPLLAPRP
  shrunken log2 fold change: 0.887

## RRIRYRPPRLPRPRPRPCSYPRP
  shrunken log2 fold change: -0.0018

## RRIRYRPPRLPRPRPRPCSEPRP
  shrunken log2 fold change: -0.067

## RRIRIRPPRLPRPRPRPCQMPRP
  shrunken log2 fold change: -0.111

## RRIRIRPPRLPRPRPRPQSDPRP
  shrunken log2 fold change: -0.212

## RRIRMRPPRLPRPRPRPRDRPRP
  shrunken log2 fold change: 1.11

## RRIRNRPPRLPRPRPRPFCFPRP
  shrunken log2 fold change: 0.567
